Molecular target: T1, Recombinant Myo2 CBD, Myo2(1,131–1,574) (S. cerevisiae, UniProt P19524 1131-1574)
T1 sequence: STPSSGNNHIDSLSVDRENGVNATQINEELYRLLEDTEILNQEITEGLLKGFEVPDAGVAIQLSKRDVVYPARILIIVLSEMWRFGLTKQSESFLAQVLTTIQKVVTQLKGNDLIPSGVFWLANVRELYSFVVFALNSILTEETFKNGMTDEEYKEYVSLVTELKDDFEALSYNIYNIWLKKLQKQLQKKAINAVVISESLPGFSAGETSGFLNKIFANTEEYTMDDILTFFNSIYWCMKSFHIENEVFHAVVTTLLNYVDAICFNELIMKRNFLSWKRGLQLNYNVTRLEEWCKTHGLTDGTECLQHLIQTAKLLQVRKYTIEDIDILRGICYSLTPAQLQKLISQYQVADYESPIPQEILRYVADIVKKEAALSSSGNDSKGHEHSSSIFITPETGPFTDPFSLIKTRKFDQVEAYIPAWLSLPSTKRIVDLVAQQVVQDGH
Assay: SEC

B1: MBP-Vac17(112–157) (domain or fragment)
chain: PNEAPNDSPQSQSTRSSLGSFQPRPLKIIERQRLCMVTPSKPPKKS
Does B1 bind?
Result: binds

— paper PMC3392941 (The Journal of Cell Biology, 2012)
